In patent publication US20220125947A1 (published 2022):

T1: TCR gamma/delta constant region (TRGDC) (human, UniProt P0CF51 1-173; B7Z8K6 1-153)
T1 chain (looked up) 1: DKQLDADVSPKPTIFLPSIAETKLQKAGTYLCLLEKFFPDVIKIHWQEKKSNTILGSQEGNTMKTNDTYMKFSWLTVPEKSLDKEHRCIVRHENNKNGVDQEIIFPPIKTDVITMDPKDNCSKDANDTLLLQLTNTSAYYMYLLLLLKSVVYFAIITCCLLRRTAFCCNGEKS
T1 chain (looked up) 2: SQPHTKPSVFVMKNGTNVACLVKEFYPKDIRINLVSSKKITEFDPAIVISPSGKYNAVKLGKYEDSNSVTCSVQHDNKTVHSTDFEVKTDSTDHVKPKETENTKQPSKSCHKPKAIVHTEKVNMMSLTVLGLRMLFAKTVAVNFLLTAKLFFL


Target: T1, TCR gamma/delta constant region (TRGDC)
Experiment: cell-based or functional assay

Binder	CD25+ (Vg9+ cells), flow staining [%]	CD71+ (Vg9+ cells), flow staining [%]	Granzyme B; Luninex (supernatant)	IFNγ; Luninex (supernatant)	IL6; Luninex (supernatant)	TNFα; Luninex (supernatant)	Vg9 T cell %, flow staining [%]
VG9B112 (antibody, human IgG1, kappa, V domains shown) VH: QVQLQQSGPGLVKPSQTLSLTCAISGDSVSSNSAAWNWIRQSPSRGLEWLGGTYYRSKWFNNYAVSVKSRITINPDTSTNQFSLQLNSVTPADTAVYYCARGEWGLRDAFDIWGQGTMVTVSS VL: DIQMTQSPSFLSASVGDRVIITCRASQGIHSYLAWYQQKPGKVPKLLIYVASTLQSGVPSRFSGSGSGTEFTLTISSLQPEDFATYYCQQLNSYPWTFGQGTKLEIKR	23.4	91.8	1140	461	256	1260	7.9
VG9B387 (antibody, human IgG1, lambda, V domains shown) VH: EVQLVESGAEVKKPGASVKVSCKASGFTFTGYYLQWVRQAPGQGLEWMGWINPNSGYTDYAQRFQDRVTMTRDTSINTAYMELSRLRSDDTAVYYCARLDDAFDVWGQGTMVTVSS VL: SYELTQDPAVSVALGQTVRITCQGDSLRNYYAIWYQQKPGQAPVLVIFGKNNRPSGIPDRFSGSSSGTTASLTITGTQAEDEADYYCNSRDSSGNHWVFGGGTKLTVLG	24.7	89.7	1470	746	5200	135	5.5
VG9B125 (antibody, human IgG1, kappa, V domains shown) VH: EVQLVESGGTLVQPGGSLRLSCAVSGFTFSSYDMNWVRQAPGKGLEWVSYISSSSTAKYYADSVKGRFTISRDNAKNSLYLQMNSLWDEDTAVYYCAREDIVVVTPILQHWGQGTTVTVSS VL: EIVMTQSPATLSLSPGERAILSCRASQSVSKDLAWYQQKPGQAPRLLIYDASNRATGIPARISGSGSGTDFTLTISSLEPEDFAVYYCQQRINWPLFTFGPGTKVEIKR	24.8	70.8	3760	1490	587	959	12.4
VG9B386 (antibody, human IgG1, kappa, V domains shown) VH: EVQLVESGGGLVKPGGSLRLSCAASGFTFSSYSMIWVRQAPGKGLEWVSSIGSSSTYIYYADSVRGRFTISRDNAKTSLYLQMNSLRAEDTAMYFCARDGETGGFDYWGQGILVTVSS VL: EIVMTQSPGTLSLSPGERATLSCRASQSISRSYLAWYQQKPGQPPRLLIYGPSNRATGIPDRFSASGSGTDFTLTNSRLEPEDFAVYYCQQYGSLPLTFGGGTKVEIKR	29.7	97	2960	846	228	89	8.5

These binders were tested against T2, γδ T cell receptor on human γδ T cells (human) (assay: flow cytometry, dose-response binding at 37° C. on human γδ T cells).
T2 construct: Mixed population of primary cells; also called AG000003021 (γδ T cells)
Procedure: Binding of antibodies to human γδ T cells or SKW cell lines expressing Vγ9/Vδ2, Vγ9/Vδ2 or Vγ5/Vδ2 was carried out by flow cytometry. Briefly, the cells were centrifuged at 300×g for 5 minutes and the pellet was resuspended in 34 ml fresh media (in RPMI+10% FBS). 50 μL of the cells were then plated (44K cells/well) into assay plates. Samples were incubated for one hour at 37° C. in tissue culture (TC) incubator followed by wash steps by adding 100 μl FACS staining buffer. Secondary detention antibodies (A647 conjugated anti-human IgG Fc specific antibody (2 μg/mL) along with AF488 anti mouse CD3, clone OKT3 at 1 ug/mL) were added at 50 μL/well to appropriate wells according to the plate map. After incubating for 60 minutes at 37° C. in the TC incubator, cells were again washed as described above. This is followed by resuspension in 20 μL/well running buffer containing 1:1000 dilution of Sytox blue dead cell stain and the plates were run on iQue Screener.
Gating and data analysis: Human anti-human Vγ9 antibody (VG9B2 mAb at 10 nM) was used to mark the gating of positive population. All cells were first gated for singlets on SCS-A vs. SCS-H dot plot, live/dead followed by CD3 positive population, and this subset of CD3 positive population was gated for Vγ9 positive binding using positive control mAb. Cells were also assessed for cell binding of control mAbs by RL1 (A647) Geomeans from the live cell population. Advanced metrics were used and normalization metrics were chosen to calculate fold over background wells containing secondary antibody alone (designated as ‘background’ within ForeCyt settings).

Binder	Max. Activity [fold over background]
VG9B191 (antibody, human IgG1, lambda, V domains shown) VH: EVQLVQSGGGLVKPGGSLRLSCAASGFTFSRYSMNWVRQAPGKGLEGVSSISSSSSYIYYADSVKGRFTISRDNAKNSLYLQMNSLRAEDTAVYYCARDGPTVNWDYYFDLWGRGTLVTVSS VL: QSVLTQPPSVSAAPGQKVTISCSGSSSNIGNNYVSWYQQLPGTAPKLLIYDNNKRPSGIPDRFSGSKSGTSATLGITGLQTGDEADYYCGTWDSSLSTSVVFGGGTKLTVLG	2370
VG9B403 (antibody, human IgG1, kappa) heavy: not shown light: DIVMTQSPGTLSLSPGDRATLSCRASQSVASSYLAWYQQKPGQSPRLLIYGASSRATGIPDRFSGSGSGTDFTLTISRLEPEDFAVYYCQQYGSSPPYTFGQGTKVEIKRTVAAPSVFIFPPSDEQLKSGTASVVCLLNNFYPREAKVQWKVDNALQSGNSQESVTEQDSKDSTYSLSSTLTLSKADYEKHKVYACEVTHQGLSSPVTKSFNRGEC	2390
VG9B33 (antibody, human IgG1, kappa, V domains shown) VH: EVQLVESGGGLVKPGGSLRLSCAASGFTFSSYNMNWVRQAPGKGLEWVSSISTSSSYIYYADSVKGRFTISRDNAKNSLYLQMNGLRAEDTAVYYCARDTSVTKYPDTFDIWGQGTMVTVSS VL: DIVMTQSPSSLSASVGDRVTITCRASQDINNYLAWFQQKPGKVPNLLIYGASTLQSGVPSRFTGSGSGTDFTLTISSLQPEDVATYYCQKYNSAPFTFGPGTKVDIKR	2090
VG9B44 (antibody, human IgG1, kappa, V domains shown) VH: QVQLQQSGPGLVKPSQTLSLTCAISGDSVSSNSAAWNWIRQSPSRGLEWLGRTYYRSKWYNDYPISVKSRISINPDTSKNQFSLQLNSVTPEDTAVYYCARESGSYYTDGFDIWGQGTMVTVSS VL: DIQMTQSPSFLSASVGDRVTITCRASQGISSYLAWYQQKPGKAPKLLIYAASTLQSGVPSRFSGSGSGTEFTLTISSLQPEDFATYYCQEFNSYPYTFGQGTKLEIKR	2320
VG9B36 (antibody, human IgG1, kappa, V domains shown) VH: QVQLVESGGGLVKPGGSLRLSCASSGFTFSSYGMYWVRQAPGKGLEWVSSISTGSSYIYYADSVKGRFTISRDNAKNSLYLQMNSLRAEDTAVYYCARDKGLAVTGYIMDVWGQGTTVTVSS VL: EIVLTQSPSSLSASVGDRVTITCQASQDISNYLNWYQQKPGKAPKLLIYDASNLETGVPSRFSGSGSGTDFTFTISSLQPEDIAIYYCQQYDNLPMYTFGQGTKVEIKR	2410
VG9B67 (antibody, human IgG1, kappa, V domains shown) VH: EVQLVESGGGLVKPGGSLRLSCAASGFTFSSYTMNWVRQAPGKGLEWVSSISSSSSYIDYAESVKGRFTISRDNAKNSLYLQMNSLRAEDTAVYYCARDGDILATIRGSFDYWGQGTTVTVSS VL: DIVMTQTPLSLPVTPGEPASISCRSSQSLLDSDAGNTYLDWYLQKPGQSPQLLIYTLSYRASGVPDRFSGSGSGTDFTLKISRVEAEDVAIYYCMQRIEFPITFGQGTKVEIKR	2270
VG9B127 (antibody, human IgG1, kappa, V domains shown) VH: QVQLVESGGGLVKPGGSLRLSCTASGFTFGAYTMNWVRQAPGKGLEWVSSISSSSSYIDFAESVKGRFTISRDNAKNSLYLQMISLRAEDTAVYYCARDGDIVSTIRGSFDYWGQGALVTVSS VL: EIVMTQSPLSLPVTPGEPASISCRSSQSLLDSDDGNTYLDWYLQKPGQSPQLLIYTLSYRASGVPDRFSGSGSGTDFTLKISRVEAEDVGIYYCMQRIEFPITFGQGTKVEIKR	2230
VG9B402 (antibody, human IgG1, kappa) heavy: not shown light: DIQMTQSPSSVSASVGDRVTITCRASQGINSWLAWYQQKPGNAPKLLIYAASSLQSGVPSRFSGIGSGTDFIFTISSLQPEDFASYYCQQANSFPWTFGQGTKVDIKRTVAAPSVFIFPPSDEQLKSGTASVVCLLNNFYPREAKVQWKVDNALQSGNSQESVTEQDSKDSTYSLSSTLTLSKADYEKHKVYACEVTHQGLSSPVTKSFNRGEC	2250
VG9B137 (antibody, human IgG1, kappa, V domains shown) VH: EVQLVESGGGLVKPGGSLRLSCAAFGITFSSYSMDWVRQAPGRGLEWVSSIGSSSSYIFYADSVKGRFTISRDNAKNSLYLQMNSLRAEDTAVYYCATSYSWNYGGAFDIWGQGTMVTVSS VL: not shown	2200
